Here are results for 94 variants from the supplement of paper PMC10567573.

B1: ADAMTS4 (parent)
chain: HVDPEEPWSPCSARFITDFLDNGY
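Note: lentivirally expressed fusions sorted by FACS into six bins by GFP to DsRed ratio, PSI derived from sequencing read proportions per bin multiplied by bin number.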

This series covers variants of B1. The series is described as follows: protein stability index of a GFP-peptide fusion (GPS, HEK-293T) (PSI 1-6); higher = more stable. To be noted: c terminus: a fixed tail appended.
Turning to HVDPEEPWSVCSARFITDFLDNGY [P10V], the protein stability index was 1.74.

Turning to HVDPEEPWSTCSARFITDFLDNGY [P10T], the protein stability index worked out at 1.92.

On to HVDPEEPWSDCSARFITDFLDNGY [P10D], for which the protein stability index worked out at 2.22.

On to HVDPEEPWSYCSARFITDFLDNGY [P10Y], for which the protein stability index worked out at 1.79.

Take HVDPEEPWSPCSARFITDMLDNGY [F19M]: the protein stability index was determined as 1.89.

Turning to HVDPEEPWSPCSARFITDDLDNGY [F19D], the protein stability index is 2.54.

For HVDPEEPWSPCSARFITDGLDNGY [F19G], the protein stability index came to 2.06.

With HVDPEEPWSPCSARFITDNLDNGY [F19N], the protein stability index stood at 2.05.

Consider HVDPEEPWSPCSARFITDLLDNGY [F19L], for which the protein stability index was 1.64.

Consider HVDPEEPWSPCSARFITDSLDNGY [F19S], for which the protein stability index was 2.17.

For the variant HVDPEEPWSPCSARFITDYLDNGY [F19Y], the protein stability index stood at 1.58.

For HVDPEEPWSPCSARFITDTLDNGY [F19T], the protein stability index came out at 2.02.

Consider HVDPEEPWSPCSARFITDALDNGY [F19A], for which the protein stability index stood at 1.86.

As for HVDPEEPWSPCSARFITDRLDNGY [F19R], the protein stability index worked out at 1.65.

Consider HVDPEEPWSPCSARFITMFLDNGY [D18M], for which the protein stability index is 2.9.

For the variant HVDPEEPWSPCSARFITLFLDNGY [D18L], the protein stability index is 2.6.

For HVDPEEPWSPCSARFITNFLDNGY [D18N], the protein stability index turned out to be 1.58.

As to HVDPEEPWSPCSARFITYFLDNGY [D18Y], the protein stability index came to 1.94.

In the case of HVDPEEPWSPCSARFITSFLDNGY [D18S], the protein stability index was determined as 1.61.

Take HVDPEEPWSPCSARFITHFLDNGY [D18H]: the protein stability index was determined as 1.89.

Take HVDPEEPWSPCSARFITCFLDNGY [D18C]: the protein stability index was 2.73.

As to HVDPEEPWSPCSARFITDFLPNGY [D21P], the protein stability index was 1.96.

For HVDPEEPWSPCSARFITDFLMNGY [D21M], the protein stability index stood at 1.77.

As to HVDPEEPWSPCSARFITDFLYNGY [D21Y], the protein stability index amounted to 1.33.

For the variant HVDPEEPWSPCSARFITDFLNNGY [D21N], the protein stability index was found to be 1.84.

For HVDPEEPWSPCSARFITDFLFNGY [D21F], the protein stability index is 2.12.

Take HVDPEEPWSPCSARFITDFLWNGY [D21W]: the protein stability index is 2.42.

On to HVDPEEPWSPCSARFIIDFLDNGY [T17I], for which the protein stability index is 2.13.

On to HVDPEEPWSPCSARFIPDFLDNGY [T17P], for which the protein stability index was found to be 1.88.

On to HVDPEEPWSPCSARFIVDFLDNGY [T17V], for which the protein stability index was found to be 1.83.

Consider HVDPEEPWSPCSARFIMDFLDNGY [T17M], for which the protein stability index turned out to be 2.38.

As to HVDPEEPWSPCSARFIRDFLDNGY [T17R], the protein stability index was determined as 2.03.

Consider HVDPEEPWSPCSARFIKDFLDNGY [T17K], for which the protein stability index is 1.71.

HVDPEEPWSPCSARFIGDFLDNGY [T17G]: the protein stability index was found to be 1.71.

With HVDPEEPWSPCSARFIHDFLDNGY [T17H], the protein stability index worked out at 2.05.

HVDPEEPWSPCSARFICDFLDNGY [T17C]: the protein stability index was found to be 2.04.

On to HVDPEEPWSPCSAVFITDFLDNGY [R14V], for which the protein stability index was determined as 1.56.

As for HVDPEEPWSPCSADFITDFLDNGY [R14D], the protein stability index is 2.45.

On to HVDPEEPWSPCSALFITDFLDNGY [R14L], for which the protein stability index came out at 2.13.

For the variant HVDPEEPWSPCSAMFITDFLDNGY [R14M], the protein stability index was 1.51.

As for HVDPEEPWSPCSATFITDFLDNGY [R14T], the protein stability index was 1.83.

With HVDPEEPWSPCSANFITDFLDNGY [R14N], the protein stability index came out at 1.86.

Take HVDPEEPWSPCSAHFITDFLDNGY [R14H]: the protein stability index was found to be 1.84.

In the case of HVDPEEPWSPCSAEFITDFLDNGY [R14E], the protein stability index amounted to 2.58.

In the case of HVDPEEPWSPCSASFITDFLDNGY [R14S], the protein stability index was 2.02.

Take HVDPEEPWSPCSAAFITDFLDNGY [R14A]: the protein stability index was 2.05.

With HVDPEEPWSPNSARFITDFLDNGY [C11N], the protein stability index amounted to 1.9.

For the variant HVDPEEPWSPDSARFITDFLDNGY [C11D], the protein stability index was 2.05.

With HVDPEEPWSPLSARFITDFLDNGY [C11L], the protein stability index was found to be 1.69.

As for HVDPEEPWSPGSARFITDFLDNGY [C11G], the protein stability index was found to be 2.05.

For the variant HVDPEEPWSPYSARFITDFLDNGY [C11Y], the protein stability index was determined as 3.06.

For HVDPEEPWSPMSARFITDFLDNGY [C11M], the protein stability index came to 1.6.

Regarding HVDPEEPWSPISARFITDFLDNGY [C11I], the protein stability index is 1.79.

For HVDPEEPWSPHSARFITDFLDNGY [C11H], the protein stability index was found to be 2.06.

HVDPEEPWSPCSARFDTDFLDNGY [I16D]: the protein stability index was 1.94.

Turning to HVDPEEPWSPCSARFGTDFLDNGY [I16G], the protein stability index was 2.27.

With HVDPEEPWSPCSARFHTDFLDNGY [I16H], the protein stability index stood at 1.72.

On to HVDPEEPWSPCSARFMTDFLDNGY [I16M], for which the protein stability index was 1.69.

HVDPEEPWSPCSARFRTDFLDNGY [I16R]: the protein stability index is 2.84.

Turning to HVDPEEPWSPCSARFQTDFLDNGY [I16Q], the protein stability index stood at 2.07.

For HVDPEEPWSPCSARFLTDFLDNGY [I16L], the protein stability index turned out to be 1.67.

Consider HNDPEEPWSPCSARFITDFLDNGY [V2N], for which the protein stability index turned out to be 2.48.

With HTDPEEPWSPCSARFITDFLDNGY [V2T], the protein stability index worked out at 2.2.

HPDPEEPWSPCSARFITDFLDNGY [V2P]: the protein stability index worked out at 2.23.

As to HYDPEEPWSPCSARFITDFLDNGY [V2Y], the protein stability index turned out to be 2.05.

As for HIDPEEPWSPCSARFITDFLDNGY [V2I], the protein stability index was determined as 2.56.

In the case of HCDPEEPWSPCSARFITDFLDNGY [V2C], the protein stability index came out at 2.09.

HSDPEEPWSPCSARFITDFLDNGY [V2S]: the protein stability index was found to be 2.55.

HEDPEEPWSPCSARFITDFLDNGY [V2E]: the protein stability index was 3.19.

HRDPEEPWSPCSARFITDFLDNGY [V2R]: the protein stability index worked out at 2.4.

Consider HHDPEEPWSPCSARFITDFLDNGY [V2H], for which the protein stability index was found to be 2.37.

Take HVDLEEPWSPCSARFITDFLDNGY [P4L]: the protein stability index worked out at 1.63.

With HVDFEEPWSPCSARFITDFLDNGY [P4F], the protein stability index amounted to 1.63.

Regarding HVDKEEPWSPCSARFITDFLDNGY [P4K], the protein stability index worked out at 1.87.

Regarding HVDNEEPWSPCSARFITDFLDNGY [P4N], the protein stability index stood at 1.95.

On to HVDVEEPWSPCSARFITDFLDNGY [P4V], for which the protein stability index came out at 1.62.

On to HVDEEEPWSPCSARFITDFLDNGY [P4E], for which the protein stability index was 2.07.

Take HVDAEEPWSPCSARFITDFLDNGY [P4A]: the protein stability index was found to be 1.63.

For the variant HVDYEEPWSPCSARFITDFLDNGY [P4Y], the protein stability index is 1.98.

Take HVDDEEPWSPCSARFITDFLDNGY [P4D]: the protein stability index came to 2.11.

Consider HVDQEEPWSPCSARFITDFLDNGY [P4Q], for which the protein stability index is 1.9.

FVDPEEPWSPCSARFITDFLDNGY [H1F]: the protein stability index was 3.17.

For EVDPEEPWSPCSARFITDFLDNGY [H1E], the protein stability index is 2.76.

Take DVDPEEPWSPCSARFITDFLDNGY [H1D]: the protein stability index was 2.4.

With YVDPEEPWSPCSARFITDFLDNGY [H1Y], the protein stability index stood at 2.29.

For SVDPEEPWSPCSARFITDFLDNGY [H1S], the protein stability index stood at 2.54.

As to WVDPEEPWSPCSARFITDFLDNGY [H1W], the protein stability index is 1.78.

Regarding HVDPEEPWSPCSARFITDFGDNGY [L20G], the protein stability index is 2.31.

For the variant HVDPEEPWSPCSARFITDFRDNGY [L20R], the protein stability index was found to be 2.3.

With HVDPEEPWSPCSARFITDFNDNGY [L20N], the protein stability index amounted to 2.39.

With HVDPEEPWSPCSARFITDFEDNGY [L20E], the protein stability index was determined as 2.24.

Regarding HVDPEEPWSPCSARFITDFIDNGY [L20I], the protein stability index is 1.78.

Take HVDPEEPWSPCSARFITDFMDNGY [L20M]: the protein stability index is 1.82.

As for HVDPEEPWSPCSARFITDFFDNGY [L20F], the protein stability index came to 2.04.
